Blank lines part the entries; values can stand above or below the binder they belong to.
What was measured:
pig CD47 = biological target: T1, pig CD47 (pig, UniProt Q9GKE8 19-303); assay: FACS binding; porcine RBCs
T1 chain: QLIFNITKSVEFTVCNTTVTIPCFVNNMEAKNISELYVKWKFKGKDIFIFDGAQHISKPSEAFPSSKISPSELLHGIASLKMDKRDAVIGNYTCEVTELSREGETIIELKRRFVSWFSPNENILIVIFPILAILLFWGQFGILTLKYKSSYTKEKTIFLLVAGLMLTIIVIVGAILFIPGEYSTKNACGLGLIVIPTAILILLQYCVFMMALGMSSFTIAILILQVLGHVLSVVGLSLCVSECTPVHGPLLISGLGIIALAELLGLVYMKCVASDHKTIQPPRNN

human CD47 = human CD47 (human, UniProt Q08722 19-323); assay: FACS binding; human RBCs
mouse CD47 = biological target: T2, mouse CD47 (mouse, UniProt Q61735 19-303); assay: FACS binding; mouse RBCs
T2 chain: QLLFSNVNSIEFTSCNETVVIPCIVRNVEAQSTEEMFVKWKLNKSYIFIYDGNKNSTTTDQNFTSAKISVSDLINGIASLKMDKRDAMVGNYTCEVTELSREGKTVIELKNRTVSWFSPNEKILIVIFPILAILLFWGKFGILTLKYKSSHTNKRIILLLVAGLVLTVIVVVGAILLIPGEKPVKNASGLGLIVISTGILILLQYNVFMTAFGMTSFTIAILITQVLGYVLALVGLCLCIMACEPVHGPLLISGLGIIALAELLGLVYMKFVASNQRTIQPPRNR

rat CD47 = biological target: T3, rat CD47 (rat, UniProt P97829 19-303); assay: FACS binding; rat RBCs
T3 chain: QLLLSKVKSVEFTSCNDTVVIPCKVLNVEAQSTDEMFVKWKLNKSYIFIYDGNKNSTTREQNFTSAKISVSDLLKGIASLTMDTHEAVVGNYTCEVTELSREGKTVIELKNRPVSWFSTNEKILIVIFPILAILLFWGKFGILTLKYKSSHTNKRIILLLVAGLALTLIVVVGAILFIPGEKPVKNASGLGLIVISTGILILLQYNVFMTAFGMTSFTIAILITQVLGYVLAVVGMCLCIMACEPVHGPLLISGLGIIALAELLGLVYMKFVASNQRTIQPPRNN

Chain of human CD47 (Q08722 19-323): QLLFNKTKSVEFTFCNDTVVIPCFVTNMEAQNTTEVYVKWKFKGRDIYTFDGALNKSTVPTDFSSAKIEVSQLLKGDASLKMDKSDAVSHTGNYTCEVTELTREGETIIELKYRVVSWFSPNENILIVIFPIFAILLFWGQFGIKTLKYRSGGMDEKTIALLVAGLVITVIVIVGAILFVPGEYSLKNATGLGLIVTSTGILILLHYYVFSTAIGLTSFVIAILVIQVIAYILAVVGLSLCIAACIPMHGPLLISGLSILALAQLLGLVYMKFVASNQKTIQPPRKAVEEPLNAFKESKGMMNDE

B2: Clone 1 (pVxK7b-037-hum01-LC / pVxK7b-037-hum01-HC) (antibody)
heavy: not shown
light: DIVMTQTPLSLPVTPGEPASISCRSSQSLVHSNGNTYLHWYQQKPGKAPKLLIYKVSYRFSGVPDRFSGSGSGTDFTLKISRVEAEDVGVYYCSQNTHVPRTFGQGTKVEIKRTVAAPSVFIFPPSDEQLKSGTASVVCLLNNFYPREAKVQWKVDNALQSGNSQESVTEQDSKDSTYSLSSTLTLSKADYEKHKVYACEVTHQGLSSPVTKSFNRGEC
EC50 (pig CD47): 0.014 µg/mL
EC50 (human CD47): 0.184 µg/mL
EC50 (mouse CD47): 0.0657 µg/mL
EC50 (rat CD47): 0.0479 µg/mL

B3: Clone 13 (pVxK7b-037-hum13-LC / pVxK7b-037-hum13-HC) (antibody)
heavy: not shown
light: B2 light
EC50 (pig CD47): 0.0152 µg/mL
EC50 (human CD47): 0.12 µg/mL
EC50 (mouse CD47): 0.0418 µg/mL
EC50 (rat CD47): 0.0461 µg/mL

More lines, now with the values ahead:

EC50 (pig CD47): 0.0309 µg/mL
EC50 (human CD47): 0.216 µg/mL
EC50 (mouse CD47): 0.265 µg/mL
EC50 (rat CD47): 0.258 µg/mL
B1: Clone 1.1 (hum01 IgG1 N297Q) (antibody)
heavy: QVQLQESGPGLVKPSQTLSLTCTVSGYTFTNYYVFWVRQARGQRLEWIGDINPVNGDTNFNEKFKNRVTISADKSISTAYLQWSSLKASDTAMYYCARGGYTMDYWGQGTLVTVSSASTKGPSVFPLAPSSKSTSGGTAALGCLVKDYFPEPVTVSWNSGALTSGVHTFPAVLQSSGLYSLSSVVTVPSSSLGTQTYICNVNHKPSNTKVDKKVEPKSCDKTHTCPPCPAPELLGGPSVFLFPPKPKDTLMISRTPEVTCVVVDVSHEDPEVKFNWYVDGVEVHNAKTKPREEQYQSTYRVVSVLTVLHQDWLNGKEYKCKVSNKALPAPIEKTISKAKGQPREPQVYTLPPSR
light: B2 light

EC50 (pig CD47): 0.031 µg/mL
EC50 (human CD47): 0.163 µg/mL
EC50 (mouse CD47): 0.0673 µg/mL
EC50 (rat CD47): 0.0835 µg/mL
B4: Clone 13.1 (hum13 IgG1 N297Q) (antibody)
heavy: EVQLVQSGAEVKKPGESLRISCKGSGYTFTNYYVFWIRQSPSRGLEWLGDINPVNGDTNFNEKFKNRVTITADKSTSTAYMELSSLRSEDTAVYYCARGGYTMDYWGQGTLVTVSSASTKGPSVFPLAPSSKSTSGGTAALGCLVKDYFPEPVTVSWNSGALTSGVHTFPAVLQSSGLYSLSSVVTVPSSSLGTQTYICNVNHKPSNTKVDKKVEPKSCDKTHTCPPCPAPELLGGPSVFLFPPKPKDTLMISRTPEVTCVVVDVSHEDPEVKFNWYVDGVEVHNAKTKPREEQYQSTYRVVSVLTVLHQDWLNGKEYKCKVSNKALPAPIEKTISKAKGQPREPQVYTLPPSR
light: B2 light

From patent US20150274826A1 (published 2015)
